Measured values: doi:10.1101/2023.02.23.529646 (bioRxiv, 2023)
Numbering of substitutions follows the chain as printed. In names and notes the source's numbering stands.

B1: ACAD9WT (res. 38-621) (enzyme)
chain: AFAKELFLGKIKKKEVFPFPEVSQDELNEINQFLGPVEKFFTEEVDSRKIDQEGKIPDETLEKLKSLGLFGLQVPEEYGGLGFSNTMYSRLGEIISMDGSITVTLAAHQAIGLKGIILAGTEEQKAKYLPKLASGEHIAAFCLTEPASGSDAASIRSRATLSEDKKHYILNGSKVWITNGGLANIFTVFAKTEVVDSDGSVKDKITAFIVERDFGGVTNGKPEDKLGIRGSNTCEVHFENTKIPVENILGEVGDGFKVAMNILNSGRFSMGSVVAGLLKRLIEMTAEYACTRKQFNKRLSEFGLIQEKFALMAQKAYVMESMTYLTAGMLDQPGFPDCSIEAAMVKVFSSEAAWQCVSEALQILGGLGYTRDYPYERILRDTRILLIFEGTNEILRMYIALTGLQHAGRILTTRIHELKQAKVSTVMDTVGRRLRDSLGRTVDLGLTGNHGVVHPSLADSANKFEENTYCFGRTVETLLLRFGKTIMEEQLVLKRVANILINLYGMTAVLSRASRSIRIGLRNHDHEVLLANTFCVEAYLQNLFSLSQLDKYAPENLDEQIKKVSQQILEKRAYICAHPLDRTC
B2: ACAD9_(VLCAD) (enzyme)
chain: B1 chain with L364M, L367M, Y369F, T370M
B3: ACAD9_(S191A) (enzyme)
chain: B1 chain with S154A
B4: ACAD9_(A184S/SR194TS) (enzyme)
chain: B1 chain with A147S, S157T, R158S
B5: ACAD9_(A184S) (enzyme)
chain: B1 chain with A147S
B6: ECSIT_(CTER-W324A) (domain or fragment)
chain: QDPVELAMFGLRHMEPDLSARVTIYQVPLPKDSTGAADPPQPHIVGIQSPDQQAALARHNPARPVFVEGPFSLWLRNKCVYYHILRADLLPPEEREVEETPEEANLYYPMQLDLEYVRSGWDNYEFDINEVEEGPVFAMCMAGAHDQATMAKWIQGLQETNPTLAQIPVVFRLAGSTRELQTSSAGLEEPPLPEDHQEEDDNLQRQQQGQS
B7: ECSIT_(CTER-Y327F) (domain or fragment)
chain: B6 chain with A104W, Y107F
B8: ECSIT_(CTER-Y328A) (domain or fragment)
chain: B6 chain with A104W, Y108A
B9: VLCADWT (res. 72-655) (enzyme)
chain: SFAVGMFKGQLTTDQVFPYPSVLNEEQTQFLKELVEPVSRFFEEVNDPAKNDALEMVEETTWQGLKELGAFGLQVPSELGGVGLCNTQYARLVEIVGMHDLGVGITLGAHQSIGFKGILLFGTKAQKEKYLPKLASGETVAAFCLTEPSSGSDAASIRTSAVPSPCGKYYTLNGSKLWISNGGLADIFTVFAKTPVTDPATGAVKEKITAFVVERGFGGITHGPPEKKMGIKASNTAEVFFDGVRVPSENVLGEVGSGFKVAMHILNNGRFGMAAALAGTMRGIIAKAVDHATNRTQFGEKIHNFGLIQEKLARMVMLQYVTESMAYMVSANMDQGATDFQIEAAISKIFGSEAAWKVTDECIQIMGGMGFMKEPGVERVLRDLRIFRIFEGTNDILRLFVALQGCMDKGKELSGLGSALKNPFGNAGLLLGEAGKQLRRRAGLGSGLSLSGLVHPELSRSGELAVRALEQFATVVEAKLIKHKKGIVNEQFLLQRLADGAIDLYAMVVVLSRASRSLSEGHPTAQHEKMLCDTWCIEAAARIREGMAALQSDPWQQELYRNFKSISKALVERGGVVTSNPLGF
B10: VLCAD_(ACAD9) (enzyme)
chain: B9 chain with M366L, M369L, F371Y, M372T

Legend:
dynamic light scattering = biological target: the molecule itself; assay: dynamic light scattering
mass photometry = biological target: the molecule itself; assay: mass photometry
ACAD9WT (res. 38-621) = biological target: B1; assay: mass photometry

Binder	stoichiometry N (mass photometry)	binding result (ACAD9WT (res. 38-621))	further results
B1	–	–	stoichiometry N (dynamic light scattering): 2
B2	2	–	–
B3	2	–	–
B4	2	–	–
B5	–	–	binding result (dynamic light scattering): binds
B6	–	binds	–
B7	–	binds	–
B8	–	binds	–
B9	2	–	–
B10	2	–	–
